Source: patent publication US20240043515A1 (Chugai, published 2024)
Where a chain is given by its changes, count along the chain named. Numbers in names are those of the source.

T1: hFcγRIIaH on Jurkat effector cells (human, UniProt P12318 34-317)
T1 sequence (looked up): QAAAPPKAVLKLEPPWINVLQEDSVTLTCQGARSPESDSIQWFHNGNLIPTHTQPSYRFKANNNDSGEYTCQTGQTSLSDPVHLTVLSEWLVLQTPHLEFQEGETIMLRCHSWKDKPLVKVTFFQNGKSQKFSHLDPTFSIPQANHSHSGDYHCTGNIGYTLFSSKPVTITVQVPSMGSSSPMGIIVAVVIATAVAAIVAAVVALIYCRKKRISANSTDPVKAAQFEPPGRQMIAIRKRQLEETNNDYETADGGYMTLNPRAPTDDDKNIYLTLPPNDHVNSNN

T2: human FcγRIIb extracellular domain (human, UniProt P31994 43-217)
T2 construct: extracellular domain; also called hFcγR IIb
T2 sequence (looked up): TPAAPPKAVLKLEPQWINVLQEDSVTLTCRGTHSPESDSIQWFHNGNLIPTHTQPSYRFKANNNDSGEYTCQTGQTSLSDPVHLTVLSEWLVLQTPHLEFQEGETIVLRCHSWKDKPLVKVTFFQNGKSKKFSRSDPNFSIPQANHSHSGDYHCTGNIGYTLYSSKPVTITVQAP

T3: human FcγRIIa H extracellular domain (human, UniProt P12318 34-217)
T3 construct: extracellular domain; also called hFcγR IIa H; FcγRIIa allotype H131
T3 sequence (looked up): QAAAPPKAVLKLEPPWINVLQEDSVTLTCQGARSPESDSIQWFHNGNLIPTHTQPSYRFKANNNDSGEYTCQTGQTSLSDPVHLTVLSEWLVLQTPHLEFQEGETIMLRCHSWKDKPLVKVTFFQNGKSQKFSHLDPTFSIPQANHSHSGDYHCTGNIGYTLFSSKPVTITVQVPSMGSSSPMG

T4: human FcγRIIa R extracellular domain (human, UniProt P12318 34-217)
T4 construct: extracellular domain; also called hFcγR IIa R; FcγRIIa allotype R131
T4 sequence (looked up): T3 sequence (looked up) with H134R

B1: EGL-ART11 (H240-Kn496/L73-k0//H240-H1516/L73-k0) (antibody, human IgG1, kappa)
heavy 1: QDQLVQSGAEVKKPGASVKVSCKASGFNIKDTYIQWVRQAPGQGLEWMGRIDPLRKQTKYREKFEGRVTITADTSTNTAYMELSSLRSEDTAVYYCVRSGREFDYWGQGTLVTVSSASTKGPSVFPLAPSSKSTSGGTAALGCLVKDYFPEPVTVSWNSGALTSGVHTFPAVLQSSGLYSLSSVVTVPSSSLGTQTYICNVNHKPSNTKVDKKVEPKSCDKTHTCPPCPAPEFQWGPMVFLFPPKPKDVLMISRTPEVTCVVVDVSDEEPEVKFNWYVDGVEVHNAKTKPREEQYNATYRVVSVLPVLHQDWLNGKEYKCKVSNKALPAPIEKTISKAKGQPREPQVCTLPPSRDELTKNQVSLWCLVKGFYPSDIAVEWESNGQPENNYKTTPPVLDSDGSFFLYSKLTVDKSRWQQGNVFSCSVMHEALHNHYTQKSLSLSP
heavy 2: QDQLVQSGAEVKKPGASVKVSCKASGFNIKDTYIQWVRQAPGQGLEWMGRIDPLRKQTKYREKFEGRVTITADTSTNTAYMELSSLRSEDTAVYYCVRSGREFDYWGQGTLVTVSSASTKGPSVFPLAPSSKSTSGGTAALGCLVKDYFPEPVTVSWNSGALTSGVHTFPAVLQSSGLYSLSSVVTVPSSSLGTQTYICNVNHKPSNTKVDKKVEPKSCDKTHTCPPCPAPELLGGPSVFLFPPKPKDVLMISRTPEVTCVVVDVSHEEPEVKFNWYVDGVEVHNAKTKPREEQYNATYRVVSVLPVLHQDWLNGKEYKCKVSNDALPAPIEETISKAKGQPREPQVYTLPPSRCELTKNQVSLSCAVKGFYPSDIAVEWESNGQPENNYKTTPPVLDSDGSFFLVSKLTVDKSRWQQGNVFSCSVMHEALHNHYTQKSLSLSP
light: DIQMTQSPSSLSASVGDRVTITCRASQDIHKYIAWYQQKPGQAPRLLIQYTSTLQPGVPSRFSGSGSGTDYTFTISSLQPEDIATYYCLQYEQLRTFGGGTKVEIKRTVAAPSVFIFPPSDEQLKSGTASVVCLLNNFYPREAKVQWKVDNALQSGNSQESVTEQDSKDSTYSLSSTLTLSKADYEKHKVYACEVTHQGLSSPVTKSFNRGEC
notes: Kn496: L234F/L235Q/G236W/S239M/T250V/H268D/D270E/S298A/T307P + Y349C/T366W; H1516: T250V/D270E/S298A/T307P/K326D/K334E + D356C/T366S/L368A/Y407V
B2: EGL-ART2 (H240-Kn120/L73-k0//H240-H1068/L73-k0) (antibody, human IgG1, kappa)
heavy 1: B1 heavy 1 with F233Y, Q234Y, V249T, E269D, P306T, A326D
heavy 2: B1 heavy 2 with V249T, A297S, P306T, A329K
light: B1 light
notes: Kn120: L234Y/L235Y/G236W/S239M/H268D/S298A/A327D + Y349C/T366W; also called Kn120/H1068
B3: EGL-ART1 (H240-Kn125/L73-k0//H240-H1076/L73-k0) (antibody, human IgG1, kappa)
heavy 1: B1 heavy 1 with F233Y, V249T, P306T
heavy 2: B1 heavy 2 with V249T, A297S, P306T, A329M
light: B1 light
notes: Heterodimeric Fc variant of the anti-human Epiregulin IgG1; Kn125: L234Y/L235Q/G236W/S239M/H268D/D270E/S298A + Y349C/T366W; H1076: D270E/K326D/A330M/K334E + D356C/T366S/L368A/Y407V (EU numbering); also called Kn125/H1076
B4: EGL-GASDALIE (H240-GASDALIE/L73-k0) (antibody, human IgG1, kappa)
heavy: QDQLVQSGAEVKKPGASVKVSCKASGFNIKDTYIQWVRQAPGQGLEWMGRIDPLRKQTKYREKFEGRVTITADTSTNTAYMELSSLRSEDTAVYYCVRSGREFDYWGQGTLVTVSSASTKGPSVFPLAPSSKSTSGGTAALGCLVKDYFPEPVTVSWNSGALTSGVHTFPAVLQSSGLYSLSSVVTVPSSSLGTQTYICNVNHKPSNTKVDKKVEPKSCDKTHTCPPCPAPELLAGPDVFLFPPKPKDTLMISRTPEVTCVVVDVSHEDPEVKFNWYVDGVEVHNAKTKPREEQYNSTYRVVSVLTVLHQDWLNGKEYKCKVSNKALPLPEEKTISKAKGQPREPQVYTLPPSRDELTKNQVSLTCLVKGFYPSDIAVEWESNGQPENNYKTTPPVLDSDGSFFLYSKLTVDKSRWQQGNVFSCSVMHEALHNHYTQKSLSLSP
light: B1 light
B5: EGL-ART3 (H240-Kn443/L73-k0//H240-H1408/L73-k0) (antibody, human IgG1, kappa)
heavy 1: B1 heavy 1 with V249T, P306T, K325D
heavy 2: B1 heavy 2 with G235A, V249T, P306T
light: B1 light
notes: Kn443: L234F/L235Q/G236W/S239M/H268D/D270E/S298A/K326D + Y349C/T366W; H1408: G236A/D270E/S298A/K326D/K334E + D356C/T366S/L368A/Y407V
B6: EGL-G1d (H240-G1d/L73-k0) (antibody, human IgG1, kappa)
heavy: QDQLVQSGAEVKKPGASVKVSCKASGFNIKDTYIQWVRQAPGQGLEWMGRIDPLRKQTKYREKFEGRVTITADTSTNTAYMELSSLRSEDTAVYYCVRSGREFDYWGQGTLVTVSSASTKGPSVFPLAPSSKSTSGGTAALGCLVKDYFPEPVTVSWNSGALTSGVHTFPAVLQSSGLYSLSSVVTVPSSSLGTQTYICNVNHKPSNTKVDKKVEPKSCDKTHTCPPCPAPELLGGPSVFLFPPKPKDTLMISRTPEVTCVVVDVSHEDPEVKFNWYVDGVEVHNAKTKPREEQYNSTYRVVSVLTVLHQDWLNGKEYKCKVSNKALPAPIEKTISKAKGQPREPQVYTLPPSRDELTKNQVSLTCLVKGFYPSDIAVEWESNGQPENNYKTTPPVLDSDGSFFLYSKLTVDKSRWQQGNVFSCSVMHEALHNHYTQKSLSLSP
light: B1 light
notes: Anti-human Epiregulin antibody with a human IgG1 constant region lacking C-terminal Gly-Lys (G1d); also called Gld; anti-hEREG control antibody
B7: EGL-SDALIE (H240-Kn032/L73-k0//H240-H1032/L73-k0) (antibody, human IgG1, kappa)
heavy 1: B4 heavy with A235G, Y348C, T365W
heavy 2: B4 heavy with A235G, D355C, T365S, L367A, Y406V
light: B1 light
notes: S239D/A330L/I332E in both heavy chains; Kn032 with Y349C/T366W, H1032 with D356C/T366S/L368A/Y407V

These binders were tested against T1, hFcγRIIaH on Jurkat effector cells (assay: cell-based or functional assay).

EC50 of reporter gene induction (ADCP Reporter Bioassay, Hepa1-6/hEREG target cells) [ng/mL] | Binder
36.7 | B1
21.8 | B2
35.3 | B3
32.4 | B4
15.8 | B5

The binders below were run against T5, human FcγRIa extracellular domain (human, UniProt P12314 16-292) (assay: SPR; KD of G1d divided by KD of this antibody).
T5 construct: extracellular domain; also called hFcγR Ia
T5 sequence (P12314 16-292): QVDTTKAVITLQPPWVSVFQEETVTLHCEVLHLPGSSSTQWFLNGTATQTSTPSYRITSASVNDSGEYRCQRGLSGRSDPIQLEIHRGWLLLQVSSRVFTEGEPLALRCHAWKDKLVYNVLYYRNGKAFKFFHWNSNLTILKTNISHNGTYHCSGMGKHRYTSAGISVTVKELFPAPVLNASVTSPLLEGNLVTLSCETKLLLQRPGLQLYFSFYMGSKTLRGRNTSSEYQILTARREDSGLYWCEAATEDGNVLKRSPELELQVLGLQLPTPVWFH
Experimental: (§1) The extracellular domains of FcγRs were produced by the method described in WO2014104165. The interaction between the produced antibodies and human FcγRs was analyzed using Biacore 8K+ by the method below. For the running buffer, 50 mM Na-Phosphate, 150 mM NaCl, and 0.05% Tween20 (pH 7.4) was used, and measurement was performed at 25° C. The sensor chip used was a Series S SA chip (GE Healthcare) onto which CaptureSelect Human Fab-kappa Kinetics Biotin Conjugate (Thermo Fisher Scientific) was immobilized. An antibody of interest was captured onto this chip, and each FcγR diluted with the running buffer was allowed to interact with it. The chip was regenerated using 10 mM Glycine-HCl (pH 1.5), and repeatedly used to capture antibodies and perform measurement. The dissociation constants KD (mol/L) of each antibody for FcγRs were calculated using Biacore Insight Evaluation Software, with a steady state affinity model for the dissociation constant for FcγRIIb and a 1:1 Langmuir binding model for the dissociation constants for the other FcγRs (Table 2).

Relative value to KD between G1d and hFcgRs [times] | Binder
1 | B6
2.4 | B1
54.3 | B7
3.4 | B2
3 | B3
21.3 | B4
0.5 | B5

These binders were tested against T2, human FcγRIIb extracellular domain (assay: SPR; KD of G1d divided by KD of this antibody).
Experimental: as §1

Relative value to KD between G1d and hFcgRs [times] | Binder
1 | B6
0.7 | B1
3.9 | B7
22.8 | B2
0.8 | B3
3.8 | B4
1.6 | B5

What follows are binders tested against T3, human FcγRIIa H extracellular domain (assay: SPR; KD of G1d divided by KD of this antibody).
Experimental: as §1

Relative value to KD between G1d and hFcgRs [times] | Binder
1 | B6
4.9 | B1
1 | B7
14.7 | B2
4.3 | B3
6.9 | B4
32.1 | B5

The binders below were run against T6, human FcγRIIIa F extracellular domain (human, UniProt P08637 17-208) (assay: SPR; KD of G1d divided by KD of this antibody).
T6 construct: extracellular domain; also called hFcγR IIIa F; FcγRIIIa allotype F158
T6 sequence (P08637 17-208): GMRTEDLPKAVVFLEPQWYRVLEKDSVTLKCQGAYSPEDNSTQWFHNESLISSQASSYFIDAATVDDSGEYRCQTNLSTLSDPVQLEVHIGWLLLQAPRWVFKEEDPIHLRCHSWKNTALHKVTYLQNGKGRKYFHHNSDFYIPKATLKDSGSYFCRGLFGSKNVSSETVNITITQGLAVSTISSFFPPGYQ
Experimental: as §1

Relative value to KD between G1d and hFcgRs [times] | Binder
1 | B6
141 | B1
113 | B7
460 | B2
1170 | B3
99.1 | B4
185 | B5

These binders were tested against T7, human FcγRIIIa V extracellular domain (human, UniProt P08637 17-208) (assay: SPR; KD of G1d divided by KD of this antibody).
T7 construct: extracellular domain; also called hFcγR IIIa V; FcγRIIIa allotype V158
T7 sequence (P08637 17-208 F176V): as the sequence (P08637 17-208) above, with F160V counted along it
Experimental: as §1

Relative value to KD between G1d and hFcgRs [times] | Binder
97.5 | B1
36.8 | B7
215 | B2
323 | B3
114 | B5

These binders were tested against T4, human FcγRIIa R extracellular domain (assay: SPR; KD of G1d divided by KD of this antibody).
Experimental: as §1

Relative value to KD between G1d and hFcgRs [times] | Binder
1 | B6
1.3 | B1
1.8 | B7
49 | B2
1.6 | B3
10.3 | B4
13.7 | B5

Each binder was assayed against hFcγRIIIaV on Jurkat effector cells (human, UniProt P08637 17-254) (assay: cell-based or functional assay).
Chain of hFcγRIIIaV on Jurkat effector cells (P08637 17-254, form in doubt): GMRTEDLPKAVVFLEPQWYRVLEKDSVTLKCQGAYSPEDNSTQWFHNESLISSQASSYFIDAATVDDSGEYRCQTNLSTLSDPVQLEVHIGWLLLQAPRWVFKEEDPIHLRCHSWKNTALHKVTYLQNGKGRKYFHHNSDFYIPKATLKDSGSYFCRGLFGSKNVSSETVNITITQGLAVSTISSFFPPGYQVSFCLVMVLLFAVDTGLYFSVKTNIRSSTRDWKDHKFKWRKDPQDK

EC50 of reporter gene induction (ADCC Reporter Bioassay, Hepa1-6/hEREG target cells) [ng/mL] | Binder
46.3 | B6
0.413 | B1
1.78 | B7
1.35 | B2
0.716 | B3
2.08 | B4
1.53 | B5

The binders below were run against T3, human FcγRIIa H extracellular domain (assay: SPR; KD for hFcγRIIb divided by KD for this FcγR).
Experimental: as §1

A/I ratio (KD for FcγRIIb divided by KD for each FcγR) [ratio] | Binder
8.9 | B6
63.3 | B1
2.2 | B7
5.8 | B2
47.4 | B3
16.5 | B4
181 | B5

Each binder was assayed against T6, human FcγRIIIa F extracellular domain (assay: SPR; KD for hFcγRIIb divided by KD for this FcγR).
Experimental: as §1

A/I ratio (KD for FcγRIIb divided by KD for each FcγR) [ratio] | Binder
3.4 | B6
694 | B1
98.7 | B7
68.4 | B2
4950 | B3
89.3 | B4
396 | B5

What follows are binders tested against T7, human FcγRIIIa V extracellular domain (assay: SPR; KD for hFcγRIIb divided by KD for this FcγR).
Experimental: as §1

A/I ratio (KD for FcγRIIb divided by KD for each FcγR) [ratio] | Binder
3970 | B1
266 | B7
264 | B2
11300 | B3
2000 | B5

What follows are binders tested against T4, human FcγRIIa R extracellular domain (assay: SPR; KD for hFcγRIIb divided by KD for this FcγR).
Experimental: as §1

A/I ratio (KD for FcγRIIb divided by KD for each FcγR) [ratio] | Binder
6.1 | B6
11.5 | B1
2.8 | B7
13 | B2
12.4 | B3
16.5 | B4
52.4 | B5
